Assay results published in publication PMC6616044, “Identification and characterization of a new sulfoacetaldehyde reductase from the human gut bacterium Bifidobacterium kashiwanohense” (Bioscience Reports, 2019).

Experiments:
BkTauF = biological target: T1, BkTauF (Bifidobacterium catenulatum, UniProt A0A0A7I0A5); test: X-ray crystal structure, […] Å; assay type: binding; settings: binary complex; nucleotide site in cleft between N- and C-terminal domains
T1 construct: gene AH68_00250; codon-optimized gene; His6-MBP-TEV-GGG fusion in E. coli BL21(DE3), tag cut by TEV protease, GGG linker before N-terminus; 375 residues seen, 41 kDa monomer, dimer; Zn2+ enzyme

[1] = biological target: Bifidobacterium kashiwanohense TauF (sulfoacetaldehyde reductase) (Bifidobacterium kashiwanohense); test: SEC; Superdex200 gel filtration, 5 mg/ml BkTauF, 4 ml injected, buffer C (20 mM Tris pH 7.5, 200 mM KCl, 1 mM DTT), 2 ml/min; molecular weight from the elution volume against markers
[2] = substrate: O=CCS(=O)(=O)O; test: spectrophotometric NADH assay, A340; assay type: biochemical, Bifidobacterium catenulatum; settings: sulfoacetaldehyde introduced as bisulfite adduct; 0.5 mM NADH, 50 mM Tris/HCl pH 7.5, room temperature; pH 7.5
Excerpt: (§1) spectrophotometric NADH assay, A340 on BkTauF

[3] = substrate: NC(=O)C1=CN([C@@H]2O[C@H](COP(=O)(O)OP(=O)(O)OC[C@H]3O[C@@H](n4cnc5c(N)ncnc54)[C@H](O)[C@@H]3O)[C@@H](O)[C@H]2O)C=CC1; test: spectrophotometric NADH assay, A340; assay type: biochemical, Bifidobacterium catenulatum; settings: sulfoacetaldehyde reduction; 5 mM sulfoacetaldehyde, 50 mM Tris/HCl pH 7.5, room temperature; pH 7.5
Excerpt: as §1

[4] = substrate: O=S(=O)(O)CCO; test: spectrophotometric NADH assay, A340; assay type: biochemical, Bifidobacterium catenulatum; settings: isethionate oxidation; 1 mM NAD+, 50 mM CAPSO pH 10.0, room temperature; pH 10.0
Excerpt: as §1

[5] = substrate: NC(=O)c1ccc[n+]([C@@H]2O[C@H](COP(=O)(O)OP(=O)(O)OC[C@H]3O[C@@H](n4cnc5c(N)ncnc54)[C@H](O)[C@@H]3O)[C@@H](O)[C@H]2O)c1; test: spectrophotometric NADH formation, A340; assay type: biochemical, Bifidobacterium catenulatum; settings: isethionate oxidation, 100 mM isethionate, 50 mM CAPSO pH 10.0, room temperature
Excerpt: spectrophotometric NADH formation, A340 on BkTauF

[6] = substrate: NC(=O)c1ccc[n+]([C@@H]2O[C@H](COP(=O)(O)OP(=O)(O)OC[C@H]3O[C@@H](n4cnc5c(N)ncnc54)[C@H](OP(=O)(O)O)[C@@H]3O)[C@@H](O)[C@H]2O)c1; test: spectrophotometric NADPH formation, A340; assay type: biochemical, Bifidobacterium catenulatum; settings: isethionate oxidation, 100 mM isethionate, 50 mM CAPSO pH 10.0, room temperature
Excerpt: spectrophotometric NADPH formation, A340 on BkTauF

[7] = substrate: NC(=O)C1=CN([C@@H]2O[C@H](COP(=O)(O)OP(=O)(O)OC[C@H]3O[C@@H](n4cnc5c(N)ncnc54)[C@H](OP(=O)(O)O)[C@@H]3O)[C@@H](O)[C@H]2O)C=CC1; test: spectrophotometric NADPH assay, A340; assay type: biochemical, Bifidobacterium catenulatum; settings: sulfoacetaldehyde reduction, 5 mM sulfoacetaldehyde, 50 mM Tris/HCl pH 7.5, room temperature
Excerpt: spectrophotometric NADPH assay, A340 on BkTauF

In the case of `NC(=O)c1ccc[n+]([C@@H]2O[C@H](COP(=O)(O)OP(=O)(O)OC[C@H]3O[C@@H](n4cnc5c(N)ncnc54)[C@H](O)[C@@H]3O)[C@@H](O)[C@H]2O)c1` [NAD^+], the “X-ray crystal structure, 3.0 Å” value (BkTauF) is reported as “The electron density is well defined for NAD^+”.

“Bifidobacterium kashiwanohense TauF (sulfoacetaldehyde reductase) (enzyme)” showed a stoichiometry N [1] of 2.

B1: BkTauF (Bifidobacterium catenulatum subsp. puerorum PV20-2) (protein)
chain: MLWDYAQPVTIRFGKGRAMEIKDIAEAMGLHDGIMVTPKFFVDSGEAQRLIDASDGAVSTVFTDFSPNPDVTEVDACAEIIRKNHCEFVVAMGGGSAMDVSKAAASICLTDDSIADYHGTGKAMPQKHLPIIALPTTAGTGSEVTCVSVLTNRKLGKKAPIVSDGFFPSVAIVDPELTYSVPPKITASTGMDVLSQAIEGFWSKGHQPICDSCAAHAAKLVFKYLPIAVAEPHNEEAREKMCEASVIAGLAFTLPKTTSSHACSFPLTNIHGIPHGEACGLTLDYFARINKDAQHGRVQEFARGIGFKDVDAMADAIHDLKVRIGMRTGLKDLNLTEEQIADLVRISRHPNLYNNPVEITDDMLDTMYHYLASTD
notes: codon-optimized gene; His6-MBP-TEV-GGG fusion in E. coli BL21(DE3), tag cut by TEV protease, GGG linker before N-terminus; 375 residues seen, 41 kDa monomer, dimer; Zn2+ enzyme
Work on B1 yielded a Km [2] of 500 ± 40 µM, a kcat [2] of 22.8 ± 0.68 s⁻¹ and a kcat/Km [2] of 46100 M⁻¹ s⁻¹. It also gave a Km [3] of 60 ± 10 µM, a kcat [3] of 18.7 ± 0.52 s⁻¹ and a kcat/Km [3] of 301000 M⁻¹ s⁻¹. For the same molecule, the Km [4] was 4440 ± 590 µM, the kcat [4] was 0.97 ± 0.03 s⁻¹ and the kcat/Km [4] was 218 M⁻¹ s⁻¹. For the same molecule, the Km [5] was 80 ± 0 µM, the kcat [5] was 1.3 ± 0.02 s⁻¹ and the kcat/Km [5] was 15800 M⁻¹ s⁻¹. For the same molecule, the Km [6] was 770 ± 80 µM, the kcat [6] was 0.8 ± 0.02 s⁻¹ and the kcat/Km [6] was 1030 M⁻¹ s⁻¹. It also gave a Km [7] of 730 ± 80 µM, a kcat [7] of 19 ± 1.13 s⁻¹ and a kcat/Km [7] of 26200 M⁻¹ s⁻¹.
